Consider one molecule from patent publication US20180037641A1 (WASHINGTON UNIVERSITY, published 2018).

Assay [1] concerns the target recombinant mouse tau, longest isoform mTau40 (432 aa) (mouse, UniProt P10637-2 1-430, limits assumed). Description: SPR (Biacore), mouse tau immobilised, antibody injected. The method, then: FIGS. 30A, 30B, 30C, 30D, 30E, 30F and 30G. Characterization of anti-tau antibodies by surface plasmon resonance (SPR) and Immunoblotting. The figure depicts SPR sensorgrams showing the binding of each anti-tau antibody towards immobilized recombinant human tau (longest isoforms hTau40, 441 aa) and immobilized mouse tau (longest isoforms mTau40, 432 aa). Each antibody was run with various concentrations (0.11, 0.23, 0.46, 0.90, […], 3.7, 7.5 μg/ml) and plots are shown in the corresponding color. (FIG. 30A) SPR sensorgrams of HJ9.3 antibody binding to immobilized human tau and immobilized mouse tau (FIG. 30B). (FIG. 30C) SPR sensorgrams of HJ9.4 antibody binding to immobilized human tau and immobilized mouse tau (FIG. 30D). SPR sensorgrams of HJ8.5 antibody binding to immobilized (FIG. 30E) human and (FIG. 30F) mouse tau. (FIG. 30G) RAB soluble fractions of 3 month old tau knockout (KO), 3 month old wild-type (WT), 3 month old P301 S (3 mo) and 9 month old P301 S (9 mo) mice were analyzed by immunoblot by using the indicated anti-tau antibodies.
Surface plasmon resonance Surface plasmon resonance experiments were performed on BIAcore 2000 surface plasmon resonance instrument (GE Healthcare-BIAcore). Biacore sensor chip CM-5 was activated by using EDC (1-ethyl-3-(3-dimethylaminopropyl)-carbodiimide) and NHS (N-hydroxysuccinimide) in a 1:1 ratio for 7 minutes. […]

For assay [2], the target named is T1, recombinant human tau, longest isoform hTau40 (441 aa) (human, UniProt P10636-8 1-441).
T1 construct: range 1-441
T1 sequence (P10636 other isoform, or with tags, fused parts or gaps limits assumed): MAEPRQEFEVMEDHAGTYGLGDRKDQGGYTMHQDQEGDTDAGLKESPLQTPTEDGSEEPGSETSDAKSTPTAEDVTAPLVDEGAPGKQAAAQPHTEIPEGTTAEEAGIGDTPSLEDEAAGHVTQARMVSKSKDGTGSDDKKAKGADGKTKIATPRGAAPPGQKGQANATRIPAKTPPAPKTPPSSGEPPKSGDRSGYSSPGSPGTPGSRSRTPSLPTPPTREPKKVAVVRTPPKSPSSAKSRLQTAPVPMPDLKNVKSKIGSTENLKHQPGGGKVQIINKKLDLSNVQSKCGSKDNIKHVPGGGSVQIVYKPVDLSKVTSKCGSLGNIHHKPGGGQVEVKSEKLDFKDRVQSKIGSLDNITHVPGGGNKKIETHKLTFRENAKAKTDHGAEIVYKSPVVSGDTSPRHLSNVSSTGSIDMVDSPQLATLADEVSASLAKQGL
Put plainly: SPR (Biacore), tau immobilised on CM-5 chip, antibody injected 0.78-400 nM. The protocol:
To characterize the binding affinity of the HJ8 and HJ9 series antibodies to mouse tau and human tau, Biacore's SPR technology was used. Biacore sensor chip CM-5 (Carboxymethylated dextran matrix) was activated by using EDC (1-ethyl-3-(3-dimethylaminopropyl)-carbodiimid) and NHS (N-hydroxysuccinimide) in 1:1 ratio. 2). Then ligand, either mouse tau or human Tau, were immobilized (20 ug/ml, in 10 mM sodium acetate pH 3.5) on Biacore CM-5 sensor chip at a flow rate of 5 μI/min. The remaining unbound area on the Biacore CM-5 sensor chip was deactivated by passage of 1 M ethanolamine pH 8.5.
Following preparation of the sensor chip surface, analytes (e.g. antibody) were injected with different concentrations (0.78 nM-400 nM) in filtered, degassed 0.01 M Hepes buffer, 0.15 M NaCl, 0.005% surfactant P20, pH 7.4 at a flow rate of 10 μI/min. All the samples were run in duplicates. After each cycle/run with single antibody concentration, the surface of the chip was regenerated by using 10 mM glycine pH 1.7, to remove the bound antibody/analyte, leaving the monomer/fibrils/ligand attached to the surface.

For assay [3], the target named is T1, recombinant human tau, longest isoform …. Description: SPR (BIAcore 2000), tau immobilised on CM-5 chip, antibody injected 0.11-7.5 µg/ml, 1:1 Langmuir global fit. The protocol: Prior to testing in vivo, the binding affinities and epitopes of the antibodies, which are all lgG2b isotype, were determined. Human and mouse tau was immobilized on a sensor chip CMS for surface plasmon resonance (SPR) (FIGS. 30A-30G). […] The association (Kₐ) and dissociation (Kd) was calculated by using BIAevaluation software (Biacore AB) selecting Fit kinetics simultaneous Kd/Kₐ (Global fitting) with 1:1 (Langmuir) interaction model. […] The epitope of HJ9.3 was mapped to the repeat domain (RD) region, between amino acids 306-320. […] It binds to human tau (FIG. 30E) but not to mouse tau (FIG. 30F). […] The epitope of HJ8.5 was mapped to amino acids 25-30. All 3 anti-tau antibodies strongly recognized human tau fibrils on SPR (FIG. 31). Because the fibrils have multiple identical epitopes, the association and dissociation rates could not be directly calculate.
Surface plasmon resonance Surface plasmon resonance experiments were performed on BIAcore 2000 surface plasmon resonance instrument (GE Healthcare-BIAcore). Biacore sensor chip CM-5 was activated by using EDC (1-ethyl-3-(3-dimethylaminopropyl)-carbodiimide) and NHS (N-hydroxysuccinimide) in a 1:1 ratio for 7 minutes.

In assay [4] the target is T2, endogenous murine tau (mouse brain and ISF) (mouse, UniProt P10637-2 1-430, limits assumed).
T2 construct: Mixture of isoforms from tissue; also called mouse tau (Western blot, immunostaining, ISF immunoprecipitation)
T2 sequence (P10637 other isoform, or with tags, fused parts or gaps limits assumed): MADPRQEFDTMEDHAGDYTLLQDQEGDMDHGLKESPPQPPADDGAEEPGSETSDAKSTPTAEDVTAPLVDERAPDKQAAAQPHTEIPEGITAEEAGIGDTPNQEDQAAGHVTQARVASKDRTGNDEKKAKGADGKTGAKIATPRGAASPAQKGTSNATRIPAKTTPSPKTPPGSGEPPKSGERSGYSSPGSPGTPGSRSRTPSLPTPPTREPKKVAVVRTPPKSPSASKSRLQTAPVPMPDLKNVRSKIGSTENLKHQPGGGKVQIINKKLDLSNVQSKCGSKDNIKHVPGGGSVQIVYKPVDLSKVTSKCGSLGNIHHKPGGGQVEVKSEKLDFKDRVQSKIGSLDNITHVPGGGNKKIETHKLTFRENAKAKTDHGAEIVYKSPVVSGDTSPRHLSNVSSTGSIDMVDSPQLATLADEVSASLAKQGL
Description: immunoblot of RAB soluble brain fractions of KO, WT and P301S mice.

recombinant mouse tau, longest isoform mTau40 (432 aa), sequence (P10637 other isoform, or with tags, fused parts or gaps limits assumed): as above

B1: HJ8.5 (antibody, V domains shown)
VH: EVKVEESGGGLVQPGGSMKLSCVVSGFTFSNYWVNWVRQSPEKGLEWVAQIRLKSDNYATHYEESVKGRFTISRDDSKSSVYLQMNNLRAEDSGIYYCTNWEDYWGQGTTLTVSS
VL: DIVLTQSPASLAVSLGQRATISCRASQSVSTSRYSYIHWYQQKPGQPPKLLIKYASNLESGVPARFSGSGSGTDFTLNIHPLEEEDAATYYCHHSWEIPLTFGAGTKLELK
notes: also called HJ8.5B (biotinylated)
In the case of B1, the binding result in assay [1] was “no binding (tested: 7.5 µg/ml)”. Further, in assay [2], the Kd turned out to be 0.336 pM, the koff was found to be 4.34e-08 s⁻¹ and the kon stood at 130000 M⁻¹ s⁻¹. Further, in assay [3], the Kd came to 0.336 pM, the koff stood at 4.34e-08 s⁻¹ and the kon is 130000 M⁻¹ s⁻¹. Moreover, the binding result in assay [4] is on record as “no binding”.
